No end group written: not given here.
What was measured:
[1] = target: endothelial cell receptor on HAEC (human aortic endothelial cells); assay: competition, 200 µM free TKPPR against TKPPR-beads (competitor) on HAEC, static, n = 11
[2] = target: endothelial cell receptor on HAEC (human aortic endothelial cells); assay: competition, free TKPPR 10 µM (head prints 10 µmol) against 5% DPPE-GTKPPR microbubbles (competitor) on HAEC, static
[3] = target: endothelial cell receptor on HAEC (human aortic endothelial cells); assay: competition, 100 µM free TKPPR against 5% DPPE-GTKPPR microbubbles (competitor) on HAEC, static
[4] = target: endothelial cell receptor on HAEC (human aortic endothelial cells); assay: competition, 50 µM free TKPPR against 1% BRU-114 microbubbles (competitor) on HAEC, static
[5] = target: endothelial cell receptor on HAEC (human aortic endothelial cells); assay: competition, 100 µM free TKPPR against 10% BRU-114 microbubbles (competitor) on HAEC, static
[6] = target: endothelial cell receptor on HAEC (human aortic endothelial cells); assay: competition, 10 µM free TKPPR against 1% BRU-114 microbubbles (competitor) on HAEC, static
[7] = target: endothelial cell receptor on HAEC (human aortic endothelial cells); assay: competition against 1% DPPE-GTKPPR microbubbles (competitor) on HAEC, static
[8] = target: endothelial cell receptor on HAEC (human aortic endothelial cells); assay: competition, 200 µM free TKPPR against 1% BRU-114 microbubbles (competitor) on HAEC, static
[9] = target: endothelial cell receptor on RAEC (rabbit aortic endothelial cells); assay: competition, 100 µM free TKPPR against 5% DPPE-GTKPPR microbubbles (competitor) on RAEC, static
[10] = target: endothelial cell receptor on HAEC (human aortic endothelial cells); assay: competition, 5 µM free TKPPR against 1% BRU-114 microbubbles (competitor) on HAEC, static
VEGF receptors on HUVECs = assay: competition with ^125I-VEGF on HUVECs
[11] = target: endothelial cell receptor on HAEC (human aortic endothelial cells); assay: competition, 25 µM free TKPPR against 1% BRU-114 microbubbles (competitor) on HAEC, static
[12] = target: endothelial cell receptor on HAEC (human aortic endothelial cells); assay: competition, 5 µM free TKPPR against 1% DPPE-GTKPPR microbubbles (competitor) on HAEC, static
[13] = target: endothelial cell receptor on HAEC (human aortic endothelial cells); assay: competition, 25 µM free TKPPR against TKPPR-beads (competitor) on HAEC, static, n = 11
[14] = target: endothelial cell receptor on HAEC (human aortic endothelial cells); assay: competition, 100 µM free TKPPR against 1% DPPE-GTKPPR microbubbles (competitor) on HAEC, static
[15] = target: endothelial cell receptor on HAEC (human aortic endothelial cells); assay: competition, 500 µM free TKPPR against TKPPR-beads (competitor) on HAEC, static, n = 11
[16] = target: endothelial cell receptor on HAEC (human aortic endothelial cells); assay: competition, 200 µM free TKPPR against 10% BRU-114 microbubbles (competitor) on HAEC, static
[17] = target: endothelial cell receptor on HAEC (human aortic endothelial cells); assay: competition, 50 µM free TKPPR against 1% BRU-114 microbubbles (competitor) on HAEC, static; remark: listed apart in the source
[18] = target: endothelial cell receptor on HAEC (human aortic endothelial cells); assay: competition, 25 µM free TKPPR against 1% BRU-114 microbubbles (competitor) on HAEC, static; remark: listed apart in the source
[19] = target: endothelial cell receptor on HAEC (human aortic endothelial cells); assay: competition, 100 µM free TKPPR against 5% BRU-114 microbubbles (competitor) on HAEC, static
[20] = target: endothelial cell receptor on HAEC (human aortic endothelial cells); assay: competition, 10 µM free TKPPR against 1% BRU-114 microbubbles (competitor) on HAEC, static; remark: listed apart in the source
[21] = target: endothelial cell receptor on HAEC (human aortic endothelial cells); assay: competition, 25 µM free TKPPR against 1% BRU-292 microbubbles (competitor) on HAEC, static
[22] = target: endothelial cell receptor on HAEC (human aortic endothelial cells); assay: competition, 10 µM free TKPPR against TKPPR-beads (competitor) on HAEC, static, n = 11
[23] = target: endothelial cell receptor on HAEC (human aortic endothelial cells); assay: competition, free TKPPR 100 µM (head prints 100 µmol) against 1% DPPE-GTKPPR microbubbles (competitor) on HAEC, static
[24] = target: endothelial cell receptor on HAEC (human aortic endothelial cells); assay: competition, 100 µM free TKPPR against TKPPR-beads (competitor) on HAEC, static, n = 11
[25] = target: endothelial cell receptor on HAEC (human aortic endothelial cells); assay: competition, 50 µM free TKPPR against 1% BRU-292 microbubbles (competitor) on HAEC, static
[26] = target: endothelial cell receptor on HAEC (human aortic endothelial cells); assay: competition against 5% DPPE-GTKPPR microbubbles (competitor) on HAEC, static
[27] = target: endothelial cell receptor on HAEC (human aortic endothelial cells); assay: competition, 10 µM free TKPPR against 1% BRU-114 microbubbles (competitor) on HAEC, static; remark: listed apart in the source
[28] = target: endothelial cell receptor on HAEC (human aortic endothelial cells); assay: competition, free TKPPR 100 µM (head prints 100 µmol) against 5% DPPE-GTKPPR microbubbles (competitor) on HAEC, static
[29] = target: endothelial cell receptor on HAEC (human aortic endothelial cells); assay: competition, free TKPPR 10 µM (head prints 10 µmol) against 1% DPPE-GTKPPR microbubbles (competitor) on HAEC, static
[30] = target: endothelial cell receptor on HAEC (human aortic endothelial cells); assay: competition, 25 µM free TKPPR against 1% DPPE-GTKPPR microbubbles (competitor) on HAEC, static
[31] = target: endothelial cell receptor on HAEC (human aortic endothelial cells); assay: competition, 50 µM free TKPPR against 1% BRU-114 microbubbles (competitor) on HAEC, static; remark: listed apart in the source
[32] = target: endothelial cell receptor on HAEC (human aortic endothelial cells); assay: competition, 100 µM free TKPPR against 1% BRU-114 microbubbles (competitor) on HAEC, static

% Inhibition [1]: 72.2% | Bubbles Bound in presence of competitor [2]: 865 bubbles | HAEC bubbles bound in presence of competitor [3]: 58 bubbles | Bubbles Bound in presence of competitor [4]: 9 bubbles | Bubbles Bound in presence of competitor [5]: 399 bubbles | Bubbles Bound in presence of competitor [6]: 10 bubbles | % inhibition of bubble binding [7]: 82.7% | Bubbles Bound in presence of competitor [8]: 4 bubbles | RAEC bubbles bound in presence of competitor [9]: 21 bubbles | Bubbles Bound in presence of competitor [10]: 790 bubbles | IC50 (VEGF receptors on HUVECs): 250 µM | Bubbles Bound in presence of competitor [11]: 75 bubbles | Average % Inhibition [12]: 45.7% | % Inhibition [13]: 50.7% | Average % Inhibition [14]: 93.7% | % Inhibition [15]: 70.6% | Bubbles Bound in presence of competitor [16]: 66 bubbles | Bubbles Bound in presence of competitor [17]: 5 bubbles | Bubbles Bound in presence of competitor [18]: 106 bubbles | Bubbles Bound in presence of competitor [19]: 12 bubbles | Bubbles Bound in presence of competitor [20]: 528 bubbles | Bubbles Bound in presence of competitor [21]: 718 bubbles | % Inhibition [22]: 30.8% | Bubbles Bound in presence of competitor [23]: 5 bubbles | % Inhibition [24]: 62% | Bubbles Bound in presence of competitor [25]: 462 bubbles | % more bubbles bound [26]: 19% | Bubbles Bound in presence of competitor [27]: 535 bubbles | Bubbles Bound in presence of competitor [28]: 62 bubbles | Bubbles Bound in presence of competitor [29]: 96 bubbles | Average % Inhibition [30]: 82% | Bubbles Bound in presence of competitor [31]: 56 bubbles | Bubbles Bound in presence of competitor [32]: 17 bubbles
B1: TKPPR-OH (L-threonyl-L-lysyl-L-prolyl-L-prolyl-L-arginine) (peptide)
peptide: TKPPR-OH
